Measured values taken from patent US20050058983A1.

Biological target: HIVSF162 Env on pseudotyped virions (HIV-1 SF162) (UniProt P19550)
Test: cell-based or functional assay

human Mab 697D (antibody)
ND50: 80 µg/mL
